Paper PMC9477746, “Mechanism of AAA+ ATPase-mediated RuvAB–Holliday junction branch migration” (Nature, 2022)

B1: N-terminally truncated RuvB (16-333) from S. thermophilus (domain or fragment, UniProt Q03IE9 16-333, looked up)
chain: VERTLRPQYFKEYIGQDKVKDQLKIFIEAAKLRDEALDHTLLFGPPGLGKTTMAFVIANEMGVNLKQTSGPAIEKAGDLVAILNDLEPGDILFIDEIHRMPMAVEEVLYSAMEDYYIDIMIGAGETSRSVHLDLPPFTLVGATTRAGMLSNPLRARFGINGHMEYYELPDLTEIVERTSEIFEMTITPEAALELARRSRGTPRIANRLLKRVRDYAQIMGDGVIDDKIADQALTMLDVDHEGLDYVDQKILRTMIEMYGGGPVGLGTLSVNIAEERETVEDMYEPYLIQKGFIMRTRTGRVATAKAYEHMGYDYTRDN
notes: RuvB, Holliday junction AAA+ ATPase, Streptococcus thermophilus, residues 16-333; domains RuvB^L 21-181, RuvB^S 182-254, RuvB^H 255-330; C-terminal TEV site, linker and HA tag; TEV cleavage done during dialysis, so residues of the TEV site may remain at the C-terminus; Tetrameric by gel filtration in solution, hexamer on DNA in the cryo-EM complex; also called RuvB (S. thermophilus); RuvB motor; …
B2: RuvA from S. typhimurium (natural protein, UniProt P66746 1-203, looked up)
chain: MIGRLRGIILEKQPPIVLLETGGVGYEVHMPMTCFYELPEAGQEAIVFTHFVVREDAQLLYGFNNKQERTLFKELIKTNGVGPKLALAILSGMSAQQFVNAVEREELGALVKLPGIGKKTAERLIVEMKDRFKGLHGDLFTPAVDLVLTSPASPTSEDAEQEAVAALVALGYKPQEASRMVSKIARPDASSETLIRDALRAAL
notes: RuvA, Holliday junction branch migration protein, Salmonella typhimurium; three domains (I, II, III); Tetramer in solution by gel filtration; two tetramers (eight chains) on the Holliday junction in the cryo-EM complex; Cloned into pET-52b(+) by NcoI and SacI; also called RuvA (S. typhimurium); recombinant S. typhimurium RuvA; source: E. coli BL21(DE3), purified (HisTrap, Superdex 200 SEC)
B3: HJ-Y2Ap (immobile Holliday junction) (structured_DNA)
DNA 1: CTCATCGAGAATCTGCCGAGAGACCGAGCAGAATTCTATGTGTTTACCAAGCGCTG
DNA 2: CAGCGCTTGGTAAACACATAGAATTCTGCTCGGTCTGAGCCGTCTAAGAGACCTAG
DNA 3: CTAGGTCTCTTAGACGGCTCACTGGCTGTGGGATCCGAGCTGTCTAGAGACATCGA
DNA 4: TCGATGTCTCTAGACAGCTCGGATCCCACAGCCAGTCTCGGCAGATTCTCGATGAG

Tests used:
[1] = biological target: the molecule itself; assay: SEC; Superdex 200 10/300GL, 100 mM NaCl, 1 mM EDTA, 0.5 mM DTT, 5% glycerol, 100 mM Tris-HCl pH 8; each protein alone; mass estimated from retention of a gel filtration standard
[2] = biological target: the molecule itself; assay: cryo-EM structure; in vitro reconstituted RuvAB-Holliday junction hetero-complex: SEC-purified RuvA-HJ mixed with RuvB, 10 mM MgCl2, equimolar ATPγS and ADP (1 mM), 37 °C 10 min, then on ice about 5 h before vitrification (dataset t2)
[3] = biological target: B1; assay: cryo-EM structure; same reconstitution of the RuvAB-Holliday junction hetero-complex, on ice 30 min before vitrification (dataset t1); settings: both partners purified
RuvA = biological target: T1, RuvA (Salmonella typhimurium, UniProt P66746 1-203); assay: EMSA; 5 mM EDTA; complex II (two tetramers) saturated at >500 nM RuvA; complex I (one tetramer) at <200 nM; EMSA: 30 mM Tris-HCl pH 8, 5 mM EDTA, 1 mM DTT, 100 ug/ml BSA, 30 min at 37 C; 6% PAGE at 4 C in 0.5x TAE; settings: protein: recombinant; tags: C-terminal His4; chain copies: 4; label: 5'-32P on one strand; four-way junction 1:2 2:3 3:4 4:1
T1 sequence: B2 chain

| Binder | stoichiometry N [1] | stoichiometry N [2] | stoichiometry N [3] | binding result (RuvA) |
| --- | --- | --- | --- | --- |
| B1 | 4 | 6 | – | – |
| B2 | – | 4 | 1 RuvA^D3 per RuvB hexamer | – |
| B3 | – | – | – | binds |
